Here are results for 1 protein from patent publication US6891028 (CEDARS SINAI MEDICAL CENTER, dated 2005).

This data set deals with the molecule itself. As to the kind of experiment: anti-FLAG immunoblot of cell lysates, reducing (~105 kDa) against non-reducing (~215 kDa) SDS-PAGE. Here is the method: Transfection and Immunoblotting. CHO-TRVb cells were maintained in F12-nutrient mixture (Gibco-BRL) supplemented with 5% fetal bovine serum. An amino terminal FLAG-tagged TfR2-α cDNA was subcloned into pcDNA3 (Invitrogen, Carlsbad, Calif.). This plasmid (100 μg) was transfected into CHO-TRVb cells using Lipofectin (Gibco-BRL). For transient expression, cells were harvested 48 h after the transfection. We also isolated a stably expressing clone using G418 (200 μg/ml) selection and a standard limiting dilution method. The protein expression was confirmed by immunoblotting using anti-FLAG (M5) antibody
Tf-binding to the TfR2-α Transfected Cells. To analyze the function of TfR2-α, we stably transfected CHO-TRVb cells, which lack functional TfR, with FLAG-tagged TfR2-α. FIGS. 6A, 6B and 6C show the expression and functional analysis of TfR2-α protein. In FIG. 6A, Tf-binding to the cell surface was examined in neomycin resistant control CHO-TRVb cells (left panels), FLAG-tagged TfR2-α stably transfected cells (middle) and TRVb-1,TfR stably transfected cells (right). The cells were incubated with 5 μg/ml of biotinylated human holo-Tf in MEM a media for 30 min on ice. After washing with PBS, the cells were incubated with streptavidin-PE, and analyzed by flow cytometry. […] After transferring to a PVDF membrane, FLAG-fusion proteins were detected by immunoblotting. […]
(Immunoblotting shows a protein as a band on a membrane.)

B1: FLAG-tagged TfR2-α (transferrin receptor 2, α form), expressed on transfected CHO-TRVb cells (receptor)
chain: MERLWGLFQRAQQLSPRSSQTVYQRVEGPRKGHLEEEEEDGEEGAETLAHFCPMELRGPEPLGSRPRQPNLIPWAAAGRRAAPYLVLTALLIFTGAFLLGYVAFRGSCQACGDSVLVVSEDVNYEPDLDFHQGRLYWSDLQAMFLQFLGEGRLEDTIRQTSLRERVAGSAGMAALTQDIRAALSRQKLDHVWTDTHYVGLQFPDPAHPNTLHWVDEAGKVGEQLPLEDPDVYCPYSAIGNVTGELVYAHYGRPEDLQDLRARGVDPVGRLLLVRVGVISFAQKVTNAQDFGAQGVLIYPEPADFSQDPPKPSLSSQQAVYGHVHLGTGDPYTPGFPSFNQTQFPPVASSGLPSIPAQPISADIASRLLRKLKGPVAPQEWQGSLLGSPYHLGPGPRLRLVVNNHRTSTPINNIFGCIEGRSEPDHYVVIGAQRDAWGPGAAKSAVGTAILLELVRTFSSMVSNGFRPRRSLLFISWDGGDFGSVGSTEWLEGYLSVLHLKAVVYVSLDNAVLGDDKFHAKTSPLLTSLIESVLKQVDSPNHSGQTLYEQVVFTNPSWDAEVIRPLPMDSSAYSFTAFVGVPAVEFSFMEDDQAYPFLHTKEDTYENLHKVLQGRLPAVAQAVAQLAGQLLIRLSHDRLLPLDFGRYGDVVLRHIGNLNEFSGDLKARGLTLQWVYSARGDYIRAAEKLRQEIYSSEERDERLTRMYNVRIMRVEFYFLSQYVSPADSPFRHIFMGRGDHTLGALLDHLRLLRSNSSGTPGATSSTGFQESRFRRQLALLTWTLQGAANALSGDVWNIDNNF
notes: The text describes TfR2-α as residues 1-801 (cytoplasmic 1-80, transmembrane 81-104, extracellular 105-801); Expressed from pcDNA3 in TfR-deficient CHO-TRVb cells, both stably and transiently; A disulfide-linked dimer is inferred from the non-reducing immunoblot; also called TfR2 cells; TfR2-α cells; not shown: amino terminal FLAG tag
With B1, the binding result was “binds”.
